{"source": "paper PMC7074877", "about": "(ACS chemical neuroscience, 2018)", "test": "Transmission electron microscopy of assemblies", "assay_type": "physicochemical", "conditions": "7 μL aliquots on carbon-coated copper grids, stained with 1% uranyl acetate", "data": [{"substance": "HEWL: fibrils from hen egg white lysozyme, positive control for ThT and TEM", "values": [{"measurement": "average diameter of assemblies by TEM", "result": 38, "unit": "nm"}]}]}
